Measurements from patent US6355790, “Inhibition of HIV replication using a mutated transfer RNA primer” (University of Rochester).

Assays:
[1] = molecular target: T1, HIV-1 reverse transcriptase (p66/p51) (Human immunodeficiency virus 1, UniProt P04585;P04585 P04585:588-1147,P04585:588-1027); test: EMSA; complex formed; competed by 100-fold excess of itself; 6 mM MgCl2, 60 mM NaCl, 40 mM Tris-HCl pH 8.3, 10 mM DTT, 37 C; settings: Genetics Institute (Cambridge, MA) for polymerase assays; label: 32P (CTP, internal); tRNA cloverleaf
[2] = molecular target: MoMuLV reverse transcriptase (Moloney murine leukemia virus, UniProt P03355 P03355:660-1330); test: EMSA; did not bind MoMuLV RT
[3] = molecular target: T1, HIV-1 reverse transcriptase (p66/p51); test: EMSA; affinity similar to tRNALys3; 100-fold excess competes effectively; 6 mM MgCl2, 60 mM NaCl, pH 8.3, 37 C; settings: Genetics Institute (Cambridge, MA) for polymerase assays; tRNA cloverleaf, acceptor stem restored

B1: tRNALys3 (ssRNA)
RNA: GCCCGGAUAGCUCAGUCGGUAGAGCAUCAGACUUUUAAUCUGAGGGUCCAGGGUUCAAGUCCCUGUUCGGGCGCCA
[1]
  binding result: binds

B2: tRNAtarD (ssRNA)
RNA: UAGACCAUAGCUCAGUCGGUAGAGCAUCAGACUUUUAAUCUGAGGGUCCAGGGUUCAAGUCCCUGUGGUCUAACCA
[2]
  binding result: no binding
[3]
  binding result: binds
